Laboratory results reported in the supplement of paper PMC10126150.
± gives the standard deviation of the averaged measurements.

Test system: ATP
Test: switch fluorescence ratio, 500 uM ATP over buffer (Cy3 cluster intensity, sum of 5 cycles each) (fold (ratio)); higher = stronger signal-on switching upon ATP binding; sequences stand for … in TCGTCGGCAGCGTCAGATGTGTATAAGAGACAGTTTTTTTTTTTTTTTTTTTTTTTTT…TC
Settings: aptamer strand: ATP DNA aptamer (quencher-CACCTGGGGGAGTATTGCGGAGGAAGG + anchor), 100 nM annealed; ATP concentration: 500 uM
How it was run: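 Cy3-labelled switching-strand clusters on a modified Illumina MiSeq flow-cell were annealed to 100 nM quencher-labelled ATP aptamer, imaged in selection buffer, then imaged after 15 min with 500 uM ATP at 22 °C. Five buffer/ATP cycles ran, with NaOH stripping and re-annealing between them. The fluorescence ratio is summed target-cycle over summed buffer-cycle Cy3 intensity per cluster, averaged per switch-domain sequence. Clusters outside 100-1000 RFU were excluded.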
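Also: ATP exposure 15 min at 22 °C before imaging.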

Sequence	switch fluorescence ratio
ACCAAATTAT	1.03 ± 0.058
TCTATAATGT	0.965 ± 0.025
CTGAGATCTC	1.02 ± 0.011
GCGGTGACTG	0.965 ± 0.018
ATCATCTGAC	1.095 ± 0.0095
TGAGAGGTTA	1.04 ± 0.013
CATGTTGAGC	0.9959 ± 0.0081
TAGGGGTACT	1.41 ± 0.61
AACTTCTATT	1.016 ± 0.00089
CCGATTGGCA	1.55 ± 0.14
AGTTACTTAG	1.07 ± 0.038
CGCGCATGGT	1.14 ± 0.033
TGGACATGTG	1.05 ± 0.1
TTTTTGGCCA	1.01 ± 0.051
ACCGTGGCGT	1.0212 ± 0.001
ATTGATGATT	0.993 ± 0.0075
CTGGGTTATT	0.977 ± 0.042
GATTAAATGT	0.992 ± 0.014
TTATACGGAG	1.01 ± 0.025
TTTGATTCAG	1.04 ± 0.071
ATGAGCGGGG	0.98 ± 0.058
GGGTTTTAAC	0.9798 ± 0.0034
GTTTTGGGAT	1.02 ± 0.031

Sequence	switch fluorescence ratio
AGCCGGCCTG	1.02 ± 0.017
AGGCACCAAC	1.16 ± 0.044
GTTGGCCGGC	1.11 ± 0.073
TTATTGGAAA	1.012 ± 0.0059
AAAAGGCATA	1.03 ± 0.046
TTTTGCGGTC	1.02 ± 0.053
AGGACATTGG	0.966 ± 0.023
ATTAAAGTGC	0.999 ± 0.027
GTTAGTTGGT	0.993 ± 0.017
TTTAATTGGC	1.17 ± 0.19
AGTAGGAATT	0.99 ± 0.038
GCCTTCCGTT	1.39 ± 0.49
GAAGCGCGTC	0.998 ± 0.049
CGAAGAGGGA	0.9864 ± 0.0081
GTAATGATTG	0.989 ± 0.014
TGGGTAATAT	1.032 ± 0.0077
GTGGGGTCGT	0.926 ± 0.045
TTAAGTGAAT	0.979 ± 0.066
TTCTAATTTG	0.968 ± 0.058
GGACCAGGGA	1 ± 0.046
TTGTTGAGAA	0.995 ± 0.056
GTGCGAAATC	1.25 ± 0.033
AGGAAGTGTG	0.9869 ± 0.0079

Sequence	switch fluorescence ratio
TAAAAACGGA	0.989 ± 0.042
TCAGTGAAAC	0.988 ± 0.021
CTCATTAAGG	1.01 ± 0.016
TGGCATTGGT	0.983 ± 0.014
GTGAGGGAAC	0.9729 ± 0.0052
GCTTGTTTGT	1.02 ± 0.024
AGTATATGTG	0.955 ± 0.023
GAGTCTATTG	1.023 ± 0.0022
GGTTAGGTGG	0.99 ± 0.044
CAGTATGCAC	1.01 ± 0.047
CCAGTGGGGC	1.01 ± 0.072
TTAGTTTGCT	1.01 ± 0.019
GACGGGCGGA	1.019 ± 0.0024
AACAGCTGTA	1.05 ± 0.062
CTTTGGGTTG	1 ± 0.02
GATTCGTATT	0.9757 ± 0.0047
CAATAAAACA	0.972 ± 0.013
TCTGAGTAGG	1 ± 0.037
AAGTGTTTTA	1.001 ± 0.0045
TTTAAATTCG	1.01 ± 0.014
AAACGTGGTG	1 ± 0.038
GATAGTAAGT	0.998 ± 0.077
AGGCCCACGG	1.006 ± 0.0067

Sequence	switch fluorescence ratio
TTTTTTCGTG	1.001 ± 0.0077
GTTGTTACTG	1.02 ± 0.019
CATGTAAGGA	0.985 ± 0.015
AAACGGGTAG	1.07 ± 0.1
ATGATTTGAG	0.9905 ± 0.0022
TCATTTGGAA	0.99 ± 0.025
ATCTTGATTG	1.03 ± 0.016
GATCATGCCT	1.048 ± 0.008
GGCGTGTGCG	0.98 ± 0.039
TGATTCTGTG	1.02 ± 0.03
GGCTATGGGG	1 ± 0.013
GAAGCCCAGG	3.38 ± 2.6
TTTGTGAGGT	1.01 ± 0.034
TGGGTATTGT	1.02 ± 0.047
TTTTTGCTTC	1.02 ± 0.043
TGATGTTAGA	1.003 ± 0.009
GATCTGCTTC	1.02 ± 0.026
CCAGGGCGTG	1.02 ± 0.069
TTGCTTTGTA	0.943 ± 0.018
AGGTTCAGCA	1 ± 0.013
TCGGGAAGGA	1.01 ± 0.031
TTTTAACTGT	1.01 ± 0.038
CGGAGGGATC	1.12 ± 0.037

Sequence	switch fluorescence ratio
TCTTCACTAA	1 ± 0.052
TAAAAAAGGA	1.05 ± 0.12
TGAGAGGGTG	1.04 ± 0.041
GAGGGAGTTT	0.987 ± 0.025
CTGGGGTGGA	1.01 ± 0.036
CTTTAATGTC	1 ± 0.025
GTTACTTGCT	1.01 ± 0.059
CGGCATTCAA	0.9989 ± 0.0057
TGCAGCATCA	1.11 ± 0.012
CACTAATGAG	1.0254 ± 0.00028
TTTCTGTTGT	1.14 ± 0.16
TTAGTTTGCA	1.02 ± 0.022
AATAAGATGT	0.999 ± 0.066
GGGTGTGCAT	1.04 ± 0.016
CGTTACAGGT	1.04 ± 0.028
CTGCAAGGGT	1.214 ± 0.011
CCTTGTCGG	1.07 ± 0.083
GATGTCCACG	0.9874 ± 0.0051
TTTCAAAAAT	1.01 ± 0.044
TTTGTAAATT	1 ± 0.018
AATGGATACT	1.03 ± 0.012
TGCTATATTA	0.99152 ± 0.00065
CTGGACAGTA	1.01 ± 0.027

Sequence	switch fluorescence ratio
CAGAGGGCTA	1.03 ± 0.038
GAATTTATTT	0.999 ± 0.025
CGCTCAGTTG	1.13 ± 0.0039
TCGTGTTTTC	1.03 ± 0.083
TTAATAAGGG	1 ± 0.024
TCATTAGGGG	0.994 ± 0.041
CTCGTAGCAG	1.17 ± 0.013
GGTGATAATG	0.982 ± 0.031
AATTTTTATT	1.039 ± 0.0073
CGGACGTTTT	1.17 ± 0.13
TTGGGTACAT	1.02 ± 0.011
GCCAGGGAGG	1.03 ± 0.026
TGCCGGTAAA	1.01 ± 0.051
TTTGGTTGTG	0.986 ± 0.018
GGGAGGGTGT	1.09 ± 0.02
TTGGTTAGCC	0.975 ± 0.078
TTGGATGTGG	1.02 ± 0.022
GGGGGCACGG	1.01 ± 0.012
ATATTTAAAA	0.985 ± 0.021
CCCGACTTTA	1.04 ± 0.014
GGAGGAGAAT	1 ± 0.014
GATAGTGATA	1.01 ± 0.019
CCTGTCAGGC	1.04 ± 0.026

Sequence	switch fluorescence ratio
GGGTTTGTCA	1.02 ± 0.029
TGATATGTGG	1.01 ± 0.038
AGTGAGGCGG	1.02 ± 0.013
TTTTAAGGGA	0.998 ± 0.014
TTTTTAATTA	1.005 ± 0.008
AAGGTATGCT	0.982 ± 0.019
GTTCGGGCTC	1.03 ± 0.019
GGAGTAGCTA	1.03 ± 0.04
AAGATACGAA	1.04 ± 0.019
TTGGGGACTT	1.02 ± 0.07
TTTCGGGTGG	0.979 ± 0.023
AATTAACCCA	1.05 ± 0.051
ATCATGATTC	0.983 ± 0.018
TTTAGGGGAT	1.01 ± 0.038
TATAGGTATG	1.01 ± 0.012
TTGACATGC	1.01 ± 0.044
AATTGGGTTG	0.957 ± 0.026
GGGGTTCGTA	0.966 ± 0.028
TATTAATTGG	0.9932 ± 0.0037
